{"source": "the supplement of paper PMC10567573", "parents": {"B1": {"name": "SPSB1 (parent)", "chain": "DMRDPTYRPLKQELQGLDYCKPTR"}}, "data": [{"variants_of": "B1", "test": "protein stability index of a GFP-peptide fusion (GPS, HEK-293T) (PSI 1-6); higher = more stable", "details": "c terminus: a fixed tail appended", "values": [{"variant": "DMRDPTYRPLKQELQGLDYCVPTR", "note": "[K21V]", "protein stability index": 3.65}, {"variant": "DMRDPTYRPLKQELQGLDYCWPTR", "note": "[K21W]", "protein stability index": 1.98}, {"variant": "DMRDPTYRPLKQELQGLDYCYPTR", "note": "[K21Y]", "protein stability index": 2.18}, {"variant": "DMRDPTYRPLKQELQGLDYCKATR", "note": "[P22A]", "protein stability index": 3.44}, {"variant": "DMRDPTYRPLKQELQGLDYCKCTR", "note": "[P22C]", "protein stability index": 3.71}, {"variant": "DMRDPTYRPLKQELQGLDYCKDTR", "note": "[P22D]", "protein stability index": 4.68}, {"variant": "DMRDPTYRPLKQELQGLDYCKETR", "note": "[P22E]", "protein stability index": 4.79}, {"variant": "DMRDPTYRPLKQELQGLDYCKFTR", "note": "[P22F]", "protein stability index": 2.85}, {"variant": "DMRDPTYRPLKQELQGLDYCKGTR", "note": "[P22G]", "protein stability index": 4.1}, {"variant": "DMRDPTYRPLKQELQGLDYCKHTR", "note": "[P22H]", "protein stability index": 4.15}, {"variant": "DMRDPTYRPLKQELQGLDYCKITR", "note": "[P22I]", "protein stability index": 2.29}, {"variant": "DMRDPTYRPLKQELQGLDYCKKTR", "note": "[P22K]", "protein stability index": 4.35}, {"variant": "DMRDPTYRPLKQELQGLDYCKLTR", "note": "[P22L]", "protein stability index": 3.18}, {"variant": "DMRDPTYRPLKQELQGLDYCKMTR", "note": "[P22M]", "protein stability index": 3.07}, {"variant": "DMRDPTYRPLKQELQGLDYCKNTR", "note": "[P22N]", "protein stability index": 3.92}, {"variant": "DMRDPTYRPLKQELQGLDYCKQTR", "note": "[P22Q]", "protein stability index": 4.26}, {"variant": "DMRDPTYRPLKQELQGLDYCKRTR", "note": "[P22R]", "protein stability index": 4.4}, {"variant": "DMRDPTYRPLKQELQGLDYCKSTR", "note": "[P22S]", "protein stability index": 3.68}, {"variant": "DMRDPTYRPLKQELQGLDYCKTTR", "note": "[P22T]", "protein stability index": 3.07}, {"variant": "DMRDPTYRPLKQELQGLDYCKVTR", "note": "[P22V]", "protein stability index": 2.9}, {"variant": "DMRDPTYRPLKQELQGLDYCKWTR", "note": "[P22W]", "protein stability index": 2.84}, {"variant": "DMRDPTYRPLKQELQGLDYCKYTR", "note": "[P22Y]", "protein stability index": 3.13}, {"variant": "DMRDPTYRPLKQELQGLDYCKPAR", "note": "[T23A]", "protein stability index": 3.18}, {"variant": "DMRDPTYRPLKQELQGLDYCKPCR", "note": "[T23C]", "protein stability index": 3.3}, {"variant": "DMRDPTYRPLKQELQGLDYCKPDR", "note": "[T23D]", "protein stability index": 2.87}, {"variant": "DMRDPTYRPLKQELQGLDYCKPER", "note": "[T23E]", "protein stability index": 3.92}, {"variant": "DMRDPTYRPLKQELQGLDYCKPFR", "note": "[T23F]", "protein stability index": 2.09}, {"variant": "DMRDPTYRPLKQELQGLDYCKPGR", "note": "[T23G]", "protein stability index": 4.26}, {"variant": "DMRDPTYRPLKQELQGLDYCKPHR", "note": "[T23H]", "protein stability index": 3.19}, {"variant": "DMRDPTYRPLKQELQGLDYCKPIR", "note": "[T23I]", "protein stability index": 2.52}, {"variant": "DMRDPTYRPLKQELQGLDYCKPKR", "note": "[T23K]", "protein stability index": 3.9}, {"variant": "DMRDPTYRPLKQELQGLDYCKPLR", "note": "[T23L]", "protein stability index": 2.99}, {"variant": "DMRDPTYRPLKQELQGLDYCKPMR", "note": "[T23M]", "protein stability index": 2.87}, {"variant": "DMRDPTYRPLKQELQGLDYCKPPR", "note": "[T23P]", "protein stability index": 4.33}, {"variant": "DMRDPTYRPLKQELQGLDYCKPQR", "note": "[T23Q]", "protein stability index": 3.47}, {"variant": "DMRDPTYRPLKQELQGLDYCKPRR", "note": "[T23R]", "protein stability index": 4.3}, {"variant": "DMRDPTYRPLKQELQGLDYCKPSR", "note": "[T23S]", "protein stability index": 2.92}, {"variant": "DMRDPTYRPLKQELQGLDYCKPVR", "note": "[T23V]", "protein stability index": 3.29}, {"variant": "DMRDPTYRPLKQELQGLDYCKPWR", "note": "[T23W]", "protein stability index": 1.76}, {"variant": "DMRDPTYRPLKQELQGLDYCKPYR", "note": "[T23Y]", "protein stability index": 2.5}, {"variant": "DMRDPTYRPLKQELQGLDYCKPTA", "note": "[R24A]", "protein stability index": 2.32}, {"variant": "DMRDPTYRPLKQELQGLDYCKPTC", "note": "[R24C]", "protein stability index": 1.93}, {"variant": "DMRDPTYRPLKQELQGLDYCKPTD", "note": "[R24D]", "protein stability index": 4.59}, {"variant": "DMRDPTYRPLKQELQGLDYCKPTE", "note": "[R24E]", "protein stability index": 4.56}, {"variant": "DMRDPTYRPLKQELQGLDYCKPTF", "note": "[R24F]", "protein stability index": 2.41}, {"variant": "DMRDPTYRPLKQELQGLDYCKPTG", "note": "[R24G]", "protein stability index": 3.85}, {"variant": "DMRDPTYRPLKQELQGLDYCKPTH", "note": "[R24H]", "protein stability index": 2.98}, {"variant": "DMRDPTYRPLKQELQGLDYCKPTK", "note": "[R24K]", "protein stability index": 3.09}, {"variant": "DMRDPTYRPLKQELQGLDYCKPTL", "note": "[R24L]", "protein stability index": 1.6}, {"variant": "DMRDPTYRPLKQELQGLDYCKPTM", "note": "[R24M]", "protein stability index": 1.64}, {"variant": "DMRDPTYRPLKQELQGLDYCKPTN", "note": "[R24N]", "protein stability index": 4.03}, {"variant": "DMRDPTYRPLKQELQGLDYCKPTP", "note": "[R24P]", "protein stability index": 4.29}, {"variant": "DMRDPTYRPLKQELQGLDYCKPTQ", "note": "[R24Q]", "protein stability index": 3.18}, {"variant": "DMRDPTYRPLKQELQGLDYCKPTS", "note": "[R24S]", "protein stability index": 3.68}, {"variant": "DMRDPTYRPLKQELQGLDYCKPTT", "note": "[R24T]", "protein stability index": 3.27}, {"variant": "DMRDPTYRPLKQELQGLDYCKPTV", "note": "[R24V]", "protein stability index": 1.92}, {"variant": "DMRDPTYRPLKQELQGLDYCKPTW", "note": "[R24W]", "protein stability index": 1.93}, {"variant": "DMRDPTYRPLKQELQGLDYCKPTY", "note": "[R24Y]", "protein stability index": 2.21}]}]}
